Experimental data reported in paper PMC10746227, “The two-component system WalKR provides an essential link between cell wall homeostasis and DNA replication in Staphylococcus aureus” (mBio, 2023).

Target: T1, WalK-LgBIT (native WalK) (S. aureus, UniProt Q2FKN7 1-608)
T1 construct: WalK, transmembrane sensor histidine kinase of the WalKR two-component system, S. aureus NRS384 (USA300); open reading frame with the stop codon removed; also called WalK Wt; source: S. aureus NRS384, from plasmid pLgBIT, in living cells
T1 sequence (looked up): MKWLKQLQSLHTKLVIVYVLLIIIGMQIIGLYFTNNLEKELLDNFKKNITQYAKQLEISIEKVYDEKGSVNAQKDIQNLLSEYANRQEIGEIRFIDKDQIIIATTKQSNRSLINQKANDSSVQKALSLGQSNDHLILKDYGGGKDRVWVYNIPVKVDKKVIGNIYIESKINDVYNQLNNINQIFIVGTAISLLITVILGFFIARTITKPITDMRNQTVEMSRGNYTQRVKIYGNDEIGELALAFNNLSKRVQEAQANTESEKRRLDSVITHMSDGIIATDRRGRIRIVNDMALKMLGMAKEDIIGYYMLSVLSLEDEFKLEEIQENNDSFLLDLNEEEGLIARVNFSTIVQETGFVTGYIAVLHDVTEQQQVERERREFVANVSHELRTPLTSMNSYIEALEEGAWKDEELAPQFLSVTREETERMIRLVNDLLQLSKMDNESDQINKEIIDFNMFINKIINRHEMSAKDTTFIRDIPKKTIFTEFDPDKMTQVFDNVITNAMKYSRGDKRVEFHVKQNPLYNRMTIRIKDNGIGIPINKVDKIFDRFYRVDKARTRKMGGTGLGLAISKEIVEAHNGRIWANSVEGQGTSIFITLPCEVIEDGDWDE
Test: split reporter (BiFC, NanoBiT); WalR-SmBIT (pSmBIT) and WalK-LgBIT (pLgBIT) alleles together in living S. aureus NRS384; LB with chloramphenicol, kanamycin and Nano-Glo substrate 1:5,000, 37°C, 96-well plate; OD600nm and light emission (RLU) read every 10 min over 8 h; lag and exponential phase
Details: partners not purified

B1: WalR_(T101A)-SmBIT (natural protein)
chain: MARKVVVVDDEKPIADILEFNLKKEGYDVYCAYDGNDAVDLIYEEEPDIVLLDIMLPGRDGMEVCREVRKKYEMPIIMLTAKDSEIDKVLGLELGADDYVAKPFSTRELIARVKANLRRHYSQPAQDTGNVTNEITIKDIVIYPDAYSIKKRGEDIELTHREFELFHYLSKHMGQVMTREHLLQTVWGYDYFGDVRTVDVTIRRLREKIEDDPSHPEYIVTRRGVGYFLQQHE
notes: WalR, response regulator, S. aureus NRS384 (USA300); open reading frame with the stop codon removed; also called "down" mutant; source: S. aureus NRS384, from plasmid pSmBIT, in living cells
fold change of the maximal level of interaction against native WalK/WalR: 1.5 fold
